Measurements reported in patent EP4578463A1, “ENDO-180 TARGETED ANTIBODY-DRUG CONJUGATES” (Oncomatryx Biopharma, S.L., priority 2023, dated 2025).

Key:
[1] = system: IC9LC11 non-small cell lung cancer patient-derived xenograft; assay: Antitumor activity in IC9LC11 non-small cell lung cancer patient-derived xenograft model; assay type: in vivo, immunodeficient female mice; conditions: 5 mg/kg; control group end day, D28
[2] = biological target: T1, human Endo180-moFc domains I-IV (aa 31-513) (human, UniProt Q9UBG0 31-513); assay: ELISA, immobilized human Endo180-mouse Fc DI-IV
T1 construct: also called huEndo180 (DI-IV); huEndo180-moFc DI-IV; not shown: murine Fc domain
T1 sequence: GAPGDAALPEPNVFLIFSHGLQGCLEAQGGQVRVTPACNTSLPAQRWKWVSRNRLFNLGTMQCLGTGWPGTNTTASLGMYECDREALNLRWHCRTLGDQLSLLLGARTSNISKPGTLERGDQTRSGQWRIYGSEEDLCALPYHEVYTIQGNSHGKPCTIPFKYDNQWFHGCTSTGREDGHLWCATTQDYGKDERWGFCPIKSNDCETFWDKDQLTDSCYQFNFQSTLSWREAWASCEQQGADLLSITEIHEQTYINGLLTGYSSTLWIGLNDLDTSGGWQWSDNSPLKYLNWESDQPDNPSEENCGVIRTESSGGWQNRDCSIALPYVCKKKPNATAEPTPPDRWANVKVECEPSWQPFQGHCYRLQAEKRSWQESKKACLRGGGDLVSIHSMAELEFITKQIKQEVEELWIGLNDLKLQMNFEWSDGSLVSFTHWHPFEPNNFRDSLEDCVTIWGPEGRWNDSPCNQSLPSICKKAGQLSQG

[3] = biological target: T2, human Endo180-moFc domains I-III (aa 31-370) (human, UniProt Q9UBG0 31-370); assay: ELISA, immobilized human Endo180-mouse Fc DI-III
T2 construct: also called huEndo180 (DI-III); huEndo180-moFc DI-III; not shown: murine Fc domain
T2 sequence: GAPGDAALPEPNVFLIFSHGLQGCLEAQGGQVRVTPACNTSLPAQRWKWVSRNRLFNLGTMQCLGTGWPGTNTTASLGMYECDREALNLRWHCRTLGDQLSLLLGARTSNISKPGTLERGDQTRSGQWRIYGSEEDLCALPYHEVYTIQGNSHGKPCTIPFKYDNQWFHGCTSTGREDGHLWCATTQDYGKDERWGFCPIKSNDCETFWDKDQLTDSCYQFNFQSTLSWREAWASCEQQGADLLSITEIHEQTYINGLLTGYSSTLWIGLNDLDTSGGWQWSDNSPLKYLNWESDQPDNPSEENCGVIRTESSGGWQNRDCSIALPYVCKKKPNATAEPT

[4] = biological target: T3, Endo180 on cells (Endo180-expressing HT1080-WT cells; Endo180-transfected HEK293-Endo180 cells) (UniProt Q9UBG0 31-1479); assay: flow cytometry on HT1080-WT cells
T3 construct: whole, on cells; One molecule is used for the endogenous protein on HT1080-WT and the transfected protein on HEK293-Endo180; also called uPARAP
T3 sequence (looked up): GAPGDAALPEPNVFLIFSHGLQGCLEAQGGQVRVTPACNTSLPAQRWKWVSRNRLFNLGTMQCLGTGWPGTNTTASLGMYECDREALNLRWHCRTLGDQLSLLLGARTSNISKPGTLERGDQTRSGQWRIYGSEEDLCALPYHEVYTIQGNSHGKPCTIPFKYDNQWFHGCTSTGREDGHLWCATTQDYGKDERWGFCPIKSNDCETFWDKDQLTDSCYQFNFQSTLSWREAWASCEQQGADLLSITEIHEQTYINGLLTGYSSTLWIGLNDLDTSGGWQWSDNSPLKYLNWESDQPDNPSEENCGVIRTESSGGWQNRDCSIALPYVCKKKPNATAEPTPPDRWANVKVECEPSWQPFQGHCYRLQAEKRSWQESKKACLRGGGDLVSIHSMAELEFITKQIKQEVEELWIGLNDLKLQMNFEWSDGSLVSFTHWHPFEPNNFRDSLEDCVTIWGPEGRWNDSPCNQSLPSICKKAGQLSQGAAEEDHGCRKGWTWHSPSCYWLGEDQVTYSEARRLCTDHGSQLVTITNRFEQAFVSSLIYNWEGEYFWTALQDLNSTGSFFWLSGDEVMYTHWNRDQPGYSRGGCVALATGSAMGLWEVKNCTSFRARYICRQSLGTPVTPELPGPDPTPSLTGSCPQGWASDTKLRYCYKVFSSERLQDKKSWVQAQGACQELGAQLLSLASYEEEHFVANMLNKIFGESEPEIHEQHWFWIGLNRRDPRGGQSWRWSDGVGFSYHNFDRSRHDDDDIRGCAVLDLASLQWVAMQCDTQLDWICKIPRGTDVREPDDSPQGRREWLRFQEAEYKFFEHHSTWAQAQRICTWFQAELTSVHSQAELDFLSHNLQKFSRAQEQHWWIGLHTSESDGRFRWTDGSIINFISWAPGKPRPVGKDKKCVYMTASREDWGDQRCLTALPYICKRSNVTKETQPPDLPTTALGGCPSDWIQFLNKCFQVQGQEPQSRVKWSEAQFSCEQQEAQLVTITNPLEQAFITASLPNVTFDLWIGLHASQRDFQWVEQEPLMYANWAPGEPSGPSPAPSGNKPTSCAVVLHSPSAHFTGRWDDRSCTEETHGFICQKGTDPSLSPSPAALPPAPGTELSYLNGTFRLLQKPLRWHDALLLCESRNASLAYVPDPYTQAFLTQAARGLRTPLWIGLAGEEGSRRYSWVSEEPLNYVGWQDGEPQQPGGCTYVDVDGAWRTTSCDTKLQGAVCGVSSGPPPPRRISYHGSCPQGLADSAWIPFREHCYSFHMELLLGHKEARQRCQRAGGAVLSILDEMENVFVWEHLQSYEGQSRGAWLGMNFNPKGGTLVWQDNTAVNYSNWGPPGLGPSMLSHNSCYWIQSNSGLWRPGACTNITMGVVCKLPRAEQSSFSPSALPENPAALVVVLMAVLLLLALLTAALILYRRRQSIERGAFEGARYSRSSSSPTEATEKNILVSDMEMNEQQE

[5] = biological target: T3, Endo180 on cells (Endo180-expressing …); assay: flow cytometry on HEK293-Endo180 cells

CC(=O)O[C@@]12CO[C@@H]1C[C@H](O)[C@@]1(C)C(=O)[C@H](O)C3=C(C)[C@@H](OC(=O)[C@H](O)[C@@H](NC(=O)OC(C)(C)C)c4ccccc4)C[C@@](O)([C@@H](OC(=O)c4ccccc4)[C@H]21)C3(C)C [Docetaxel]
TGI [1]: 73%
tolerability based on body weight data and clinical observations (mouse, in vivo): well tolerated, except in one mouse
relative weight loss (one mouse, at the group end day): 16.0%

B1: IgG G7V Δab (antibody, V domains shown)
VH: EVQLVESGGGLVKPGGSLRLSCAASGFTFSSYSMNWVRQAPGKGLEWVANIKPDGSERHSVDSVKGRFTISRDNSKNSLYLQMNSLRAEDTAVYYCARPGAGRLDYWGQGTLVTVSS
VL: SSELTQDPAVSVALGQTVRITCQGDSLRSYYASWYQQKPGQAPVLVVYGKNNRPSGIPDRFSGSSSGNTASLTITGAQAEDEADYYCNSRDSSGNPWAFGGGTKVTVL
notes: also called IgG G7V with a silent Fc
EC50 [2]: 0.53 nM
EC50 [3]: 0.45 nM
EC50 [4]: 3.7 nM

B2: OMTX807 ADC (antibody-drug conjugate) (antibody, human IgG1, lambda, V domains shown)
VH: B1 VH
VL: SSELTQDPAVSVALGQTVRITCQGDSLRSYYASWYQQKPGQAPVLVVYGKNNRPSGIPDRFSGSSSGNTASLTITGAQAEDEADYYCNSRDSSGNPWAFGGGTKVTVLG
modifications: drug-linker GGFG-DXd on cysteine residues, non-specific site (sites not given); drug-linker GGFG-DXd on cysteine residues, non-specific site, DAR 8.05
notes: antibody-drug conjugate
EC50 [5]: 0.7 nM

B3: OMTX707 antibody-drug conjugate (antibody, human IgG1, lambda, V domains shown)
VH: B1 VH
VL: B2 VL
modifications: drug-linker TAM558 on cysteine residues, non-site directed (sites not given); drug-linker TAM558 (cytolysin-linker maleimide caproyl vcPABA) on cysteine residues, non-site directed, DAR 3.79
notes: antibody-drug conjugate; also called OMTX707 ADC
EC50 [5]: 1.3 nM
